Results on three molecules are retold here after patent publication US20240043560A1 (Regeneron, published 2024).

Broadly, the EC50 is the concentration giving half of the maximal effect. A lower EC50 goes with greater potency. The term Kd denotes a measure of binding affinity in units of concentration. Usually koff stands for the rate constant with which the complex falls apart. The kon is the second-order rate constant of association. Broadly, the t½ is how long it takes for the measured level to halve.

Assay [1] has as its target full-length human CD28 (hCD28, amino acids M1 to S220, accession #P10747) on engineered reporter T-cells (human, UniProt P10747 19-220). In words: cell-based or functional assay.
For assay [2], the target named is T1, PSMA on the surface of cell lines expressing PSMA (C4-2, 22RV1) (human, UniProt Q04609 1-750).
T1 construct: whole, on cells; also called C4-2 cells; 22RV1 cells
T1 sequence (Q04609 whole entry): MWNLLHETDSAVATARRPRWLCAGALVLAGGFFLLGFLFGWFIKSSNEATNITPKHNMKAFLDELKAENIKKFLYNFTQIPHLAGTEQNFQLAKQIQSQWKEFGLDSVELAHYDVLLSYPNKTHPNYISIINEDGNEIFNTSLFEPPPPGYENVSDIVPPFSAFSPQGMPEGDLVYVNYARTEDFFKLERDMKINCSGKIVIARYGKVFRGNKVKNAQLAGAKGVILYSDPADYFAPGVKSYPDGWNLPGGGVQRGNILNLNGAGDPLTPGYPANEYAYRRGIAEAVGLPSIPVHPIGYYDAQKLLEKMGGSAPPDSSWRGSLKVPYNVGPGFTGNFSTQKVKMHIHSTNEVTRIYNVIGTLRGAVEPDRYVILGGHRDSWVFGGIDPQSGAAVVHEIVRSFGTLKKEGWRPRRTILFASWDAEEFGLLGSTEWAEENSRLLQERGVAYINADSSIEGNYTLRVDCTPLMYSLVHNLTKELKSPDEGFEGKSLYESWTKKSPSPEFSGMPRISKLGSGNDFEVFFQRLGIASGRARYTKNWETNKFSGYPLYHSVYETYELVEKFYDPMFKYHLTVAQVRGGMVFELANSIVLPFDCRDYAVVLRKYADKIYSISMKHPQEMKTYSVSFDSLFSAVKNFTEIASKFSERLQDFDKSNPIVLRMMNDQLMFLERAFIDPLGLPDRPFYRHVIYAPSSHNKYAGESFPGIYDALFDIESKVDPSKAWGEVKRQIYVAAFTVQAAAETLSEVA
Nature of the assay: flow cytometry, C4-2 cells expressing PSMA. For orientation: Flow cytometry measures light scatter and fluorescence of single cells or particles in a stream.

For assay [3], the target named is T1, PSMA on the surface of cell lines …. Nature of the assay: flow cytometry, 22RV1 cells expressing PSMA.
Assay [4] concerns the target T2, CD28 on the surface of Human T cells (human, UniProt P10747 19-220).
T2 construct: whole, on cells; also called CD28 on T cells; all T cells
In words: flow cytometry, human CD4+ T cells; CD4+ T cells.

Assay [5] has as its target T2, CD28 on the surface of Human T cells. Nature of the assay: flow cytometry, human CD8+ T cells; CD8+ T cells.
Assay [6] shares this target. Nature of the assay: flow cytometry, human T cells (all T cells); all T cells.
Assay [7] addresses T3, hCD28.mmh (human, UniProt P10747 19-152).
T3 construct: also called hCD28.6H; not shown: neither explained nor printed
In words: SPR, Biacore, captured antibody, soluble hCD28 injected, 37°C. In general terms: Surface plasmon resonance follows binding to a sensor surface in real time, without labels.

Assay [8] deals with T4, 6h.hPSMA (recombinant Human PSMA/FOLH1 Protein, R&D, Catalog #4234-ZN) (human, UniProt Q04609 44-750).
T4 construct: Bought protein; also called hPSMA with an N-terminal polyhistidine tag; hPSMA.6H; not shown: N-terminal polyhistidine tag (6h)
T4 sequence (Q04609 44-750 limits assumed): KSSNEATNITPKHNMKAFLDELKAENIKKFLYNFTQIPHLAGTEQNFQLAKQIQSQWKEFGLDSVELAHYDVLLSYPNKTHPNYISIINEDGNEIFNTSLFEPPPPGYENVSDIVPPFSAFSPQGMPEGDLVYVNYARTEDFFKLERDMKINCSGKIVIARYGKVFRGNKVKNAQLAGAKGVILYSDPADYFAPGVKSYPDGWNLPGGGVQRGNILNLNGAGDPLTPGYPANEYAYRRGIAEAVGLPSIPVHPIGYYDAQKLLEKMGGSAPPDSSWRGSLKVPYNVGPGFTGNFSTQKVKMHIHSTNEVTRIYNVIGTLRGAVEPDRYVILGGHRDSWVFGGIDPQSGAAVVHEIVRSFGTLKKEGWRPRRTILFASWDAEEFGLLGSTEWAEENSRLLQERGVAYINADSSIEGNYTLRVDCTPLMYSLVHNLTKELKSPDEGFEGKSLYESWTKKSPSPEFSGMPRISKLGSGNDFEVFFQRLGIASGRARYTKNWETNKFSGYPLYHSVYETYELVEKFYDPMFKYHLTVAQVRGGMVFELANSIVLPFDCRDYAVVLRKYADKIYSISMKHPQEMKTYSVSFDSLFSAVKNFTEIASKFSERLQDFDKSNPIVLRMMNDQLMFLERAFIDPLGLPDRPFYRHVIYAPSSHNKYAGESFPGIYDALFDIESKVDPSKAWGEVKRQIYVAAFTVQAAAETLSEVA
Nature of the assay: SPR, Biacore, captured antibody, hPSMA.6H (block headed 10 nM), 37°C.

Assay [9] concerns the target T4, 6h.hPSMA (recombinant Human PSMA/FOLH1 …). In words: SPR, Biacore, captured antibody, hPSMA.6H (block headed 20 nM), 37°C.
The target is the same in assay [10]. Nature of the assay: SPR, Biacore T-200, antibody captured by anti-human Fc, 6h.hPSMA injected, 25°C. As to the method: (§1) The different concentrations of 6h.hPSMA were injected over the monoclonal antibody captured surface at a flow rate of 50 μL/minute. Association of 6h.hPSMA to the captured monoclonal antibody was monitored for 3 minutes and the dissociation of 6h.hPSMA in HBS-P++ running buffer was monitored for 10 minutes. Kinetic association (kₐ) and dissociation (kd) rate constants were determined by fitting the real-time sensorgrams to a 1:1 binding model using Scrubber 2.0c curve fitting software (BioLogic Software). Binding dissociation equilibrium constants (KD) and dissociative half-lives (t1/2) were calculated from the kinetic rate constants as: KD(M)=kd/kₐ, and t1/2 (min)=0.693/kd/60

Assay [11] deals with T3, hCD28.mmh. In words: SPR, Biacore T-200, antibody captured by anti-human Fc, hCD28.mmh injected, 25°C. As to the method: as §1, with “Different concentrations” for “The different concentrations”, “of hCD28.mmh” for “of 6h.hPSMA”, “for 5” for “for 3”, “fitting software.” for “fitting software (BioLogic Software).”
The target of assay [12] is T4, 6h.hPSMA (recombinant Human PSMA/FOLH1 …). In words: SPR, Biacore, captured antibody, hPSMA.6H (block headed 20 nM), 37°C; 20 nM hPSMA.6H block, 37 C.

B1: BSPSMA/CD28-001 (bispecific antibody, human IgG4 S228P, kappa)
heavy 1: QVQLVESGGGVVQPGRSLRLSCAASGFTFSSYGMHWVRQAPGKGLEWVAFMSYDGSNKFYSDSVKGRFTISRDNSRKMLFLQMNNLRAEDTAVYYCARDQYYDFLTDHGVFDYWGQGTLVTVSSASTKGPSVFPLAPCSRSTSESTAALGCLVKDYFPEPVTVSWNSGALTSGVHTFPAVLQSSGLYSLSSVVTVPSSSLGTKTYTCNVDHKPSNTKVDKRVESKYGPPCPPCPAPPVAGPSVFLFPPKPKDTLMISRTPEVTCVVVDVSQEDPEVQFNWYVDGVEVHNAKTKPREEQFNSTYRVVSVLTVLHQDWLNGKEYKCKVSNKGLPSSIEKTISKAKGQPREPQVYTLPPSQEEMTKNQVSLTCLVKGFYPSDIAVEWESNGQPENNYKTTPPVLDSDGSFFLYSRLTVDKSRWQEGNVFSCSVMHEALHNHYTQKSLSLSLGK
heavy 2: QVQLQESGPGLVKPSETLSLTCTVSGGSISSYYWSWIRQPPGKGLEWIGYIYYSGITHYNPSLKSRVTISVDTSKIQFSLKLSSVTAADTAVYYCARWGVRRDYYYYGMDVWGQGTTVTVSSASTKGPSVFPLAPCSRSTSESTAALGCLVKDYFPEPVTVSWNSGALTSGVHTFPAVLQSSGLYSLSSVVTVPSSSLGTKTYTCNVDHKPSNTKVDKRVESKYGPPCPPCPAPPVAGPSVFLFPPKPKDTLMISRTPEVTCVVVDVSQEDPEVQFNWYVDGVEVHNAKTKPREEQFNSTYRVVSVLTVLHQDWLNGKEYKCKVSNKGLPSSIEKTISKAKGQPREPQVYTLPPSQEEMTKNQVSLTCLVKGFYPSDIAVEWESNGQPENNYKTTPPVLDSDGSFFLYSRLTVDKSRWQEGNVFSCSVMHEALHNRFTQKSLSLSPGK
light: not shown
notes: also called mAb1; REGN5678
In the case of B1, the “EC50 [M], luciferase activity in engineered reporter T-cells with HEK293/hCD20/hPSMA, presence of TCR stimulation” value in [1] worked out at 1.72e-10 M. Further, the “Fold induction, luciferase activity in engineered reporter T-cells with HEK293/hCD20, absence of TCR stimulation” value in [1] is 0.81 fold. The “Fold induction, luciferase activity in engineered reporter T-cells with HEK293/hCD20, presence of TCR stimulation” value in assay [1] came out at 1 fold. The “Fold induction, luciferase activity in engineered reporter T-cells with HEK293/hCD20/hPSMA, absence of TCR stimulation” value in assay [1] came to 1.04 fold. The “Fold induction, luciferase activity in engineered reporter T-cells with HEK293/hCD20/hPSMA, presence of TCR stimulation” value in assay [1] was 16.1 fold. Besides, the 50% effective concentration (EC50) came out at 3.87 nM in [2]; 3.05 nM in [3]; 50.9 nM in assay [4]; 58.9 nM in assay [5]; 48 nM in assay [6]. In addition, the Kd with hCD28.mmh [7] turned out to be 272 nM; in assay [8] it was 0.396 nM; in [9], 0.217 nM; in assay [10], 0.251 nM; with hCD28.mmh [11], 144 nM. Also, the koff in the assay with hCD28.mmh [7] is 0.0067 s⁻¹; in assay [8] it was 7.93e-05 s⁻¹; in assay [10] it was 4.92e-05 s⁻¹; with hCD28.mmh [11] it was 0.00326 s⁻¹; in assay [12], 6.36e-05 s⁻¹. The on-rate (kon) with hCD28.mmh [7] was 24600 M⁻¹ s⁻¹; in [8], 200000 M⁻¹ s⁻¹; in [9] it was 293000 M⁻¹ s⁻¹; in assay [10] it was 196000 M⁻¹ s⁻¹; with hCD28.mmh [11], 22600 M⁻¹ s⁻¹. For the same molecule, the figures for the t½ (in the assay with hCD28.mmh [7]; in assay [8]; in assay [9]) were 1.7 min, 2.43 h and 3.03 h, respectively. Further, the figures for the “T½” value (in assay [10]; with hCD28.mmh [11]) were 3.91 h and 3.5 min, respectively.

B2: BSPSMA/CD28-002 (bispecific antibody, human IgG4 S228P, kappa)
heavy 1: QVQLVESGGGVVQPGRSLRLSCAASGFTFSSYGMHWVRQAPGKGLEWVAVISYAGNNKYYADSVKGRFTVSRDNSKKTLYLQMNSLRSEDTAVYYCAKDSYYDFLTDPDVLDIWGQGTMVTVSSASTKGPSVFPLAPCSRSTSESTAALGCLVKDYFPEPVTVSWNSGALTSGVHTFPAVLQSSGLYSLSSVVTVPSSSLGTKTYTCNVDHKPSNTKVDKRVESKYGPPCPPCPAPPVAGPSVFLFPPKPKDTLMISRTPEVTCVVVDVSQEDPEVQFNWYVDGVEVHNAKTKPREEQFNSTYRVVSVLTVLHQDWLNGKEYKCKVSNKGLPSSIEKTISKAKGQPREPQVYTLPPSQEEMTKNQVSLTCLVKGFYPSDIAVEWESNGQPENNYKTTPPVLDSDGSFFLYSRLTVDKSRWQEGNVFSCSVMHEALHNHYTQKSLSLSLGK
heavy 2: EVQLVESGGGLVQPGGSLRLSCAASGFTFSTYAMTWVRQAPGKGLEWVSFISGSGDNTYYADSVKGRFTISRDNSKNTLYLQMNSLRADDSAIYHCAKDSGYCSSGGCSLYFYYGMDVWGQGTTVTVSSASTKGPSVFPLAPCSRSTSESTAALGCLVKDYFPEPVTVSWNSGALTSGVHTFPAVLQSSGLYSLSSVVTVPSSSLGTKTYTCNVDHKPSNTKVDKRVESKYGPPCPPCPAPPVAGPSVFLFPPKPKDTLMISRTPEVTCVVVDVSQEDPEVQFNWYVDGVEVHNAKTKPREEQFNSTYRVVSVLTVLHQDWLNGKEYKCKVSNKGLPSSIEKTISKAKGQPREPQVYTLPPSQEEMTKNQVSLTCLVKGFYPSDIAVEWESNGQPENNYKTTPPVLDSDGSFFLYSRLTVDKSRWQEGNVFSCSVMHEALHNRFTQKSLSLSPGK
light: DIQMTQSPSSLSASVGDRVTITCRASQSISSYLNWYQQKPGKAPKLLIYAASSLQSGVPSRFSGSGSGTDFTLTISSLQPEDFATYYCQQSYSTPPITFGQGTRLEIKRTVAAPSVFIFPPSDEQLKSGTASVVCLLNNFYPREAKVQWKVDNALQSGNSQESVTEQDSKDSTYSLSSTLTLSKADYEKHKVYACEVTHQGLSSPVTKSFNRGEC
In the case of B2, in assay [1], the “EC50 [M], luciferase activity in engineered reporter T-cells with HEK293/hCD20/hPSMA, presence of TCR stimulation” value stood at 4.57e-10 M; the “Fold induction, luciferase activity in engineered reporter T-cells with HEK293/hCD20, absence of TCR stimulation” value was 0.87 fold; the “Fold induction, luciferase activity in engineered reporter T-cells with HEK293/hCD20, presence of TCR stimulation” value worked out at 0.92 fold; the “Fold induction, luciferase activity in engineered reporter T-cells with HEK293/hCD20/hPSMA, absence of TCR stimulation” value was 0.89 fold. Besides, in [1], the “Fold induction, luciferase activity in engineered reporter T-cells with HEK293/hCD20/hPSMA, presence of TCR stimulation” value was 13.6 fold.

B3: BSPSMA/CD28-003 (bispecific antibody, human IgG4 S228P, kappa)
heavy 1: B2 heavy 1
heavy 2: EVQLVESGGGLVQPGGSLRLSCAASGFTFSRNNMHWVRQAPGKGLEYVSGISSNGGRTYYADSVKGRFTISRDNSKNTLYLQMGGLRAADMAVYFCTRDDELLSFDYWGQGTLVTVSSASTKGPSVFPLAPCSRSTSESTAALGCLVKDYFPEPVTVSWNSGALTSGVHTFPAVLQSSGLYSLSSVVTVPSSSLGTKTYTCNVDHKPSNTKVDKRVESKYGPPCPPCPAPPVAGPSVFLFPPKPKDTLMISRTPEVTCVVVDVSQEDPEVQFNWYVDGVEVHNAKTKPREEQFNSTYRVVSVLTVLHQDWLNGKEYKCKVSNKGLPSSIEKTISKAKGQPREPQVYTLPPSQEEMTKNQVSLTCLVKGFYPSDIAVEWESNGQPENNYKTTPPVLDSDGSFFLYSRLTVDKSRWQEGNVFSCSVMHEALHNRFTQKSLSLSPGK
light: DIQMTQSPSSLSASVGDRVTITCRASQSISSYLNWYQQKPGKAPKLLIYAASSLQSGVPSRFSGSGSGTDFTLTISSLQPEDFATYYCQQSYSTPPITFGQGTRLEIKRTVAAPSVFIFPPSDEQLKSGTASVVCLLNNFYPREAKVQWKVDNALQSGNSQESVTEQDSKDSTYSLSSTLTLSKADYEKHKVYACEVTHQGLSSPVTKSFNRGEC
notes: also called anti-PSMAxCD28 bispecific antibody
In the case of B3, in assay [1], the “EC50 [M], luciferase activity in engineered reporter T-cells with HEK293/hCD20/hPSMA, presence of TCR stimulation” value came out at 2.78e-10 M; the “Fold induction, luciferase activity in engineered reporter T-cells with HEK293/hCD20, absence of TCR stimulation” value stood at 0.94 fold; the “Fold induction, luciferase activity in engineered reporter T-cells with HEK293/hCD20, presence of TCR stimulation” value turned out to be 0.95 fold; the “Fold induction, luciferase activity in engineered reporter T-cells with HEK293/hCD20/hPSMA, absence of TCR stimulation” value was found to be 0.98 fold. Also, the “Fold induction, luciferase activity in engineered reporter T-cells with HEK293/hCD20/hPSMA, presence of TCR stimulation” value in assay [1] turned out to be 24.5 fold. This molecule also had an EC50 in [2] of 1.5 nM. In addition, the midpoint of the response in assay [3], the EC50, lay at 6.33 nM. For the same molecule, the half-maximal effective concentration (EC50) in assay [4] worked out at 167 nM. The molecule also displayed a concentration for a half-maximal effect (EC50) in assay [5] of 180 nM. In [10], the Kd stood at 0.137 nM, the “T½” value came to 5.01 h, the off-rate constant (koff) was determined as 3.85e-05 s⁻¹ and the kon turned out to be 280000 M⁻¹ s⁻¹. Moreover, in the assay with hCD28.mmh [11], the Kd came to 207 nM, the “T½” value was found to be 8.2 min, the koff amounted to 0.00141 s⁻¹ and the kon turned out to be 6790 M⁻¹ s⁻¹.
